According to PMC8809517, “Cofactor-independent RNA editing by a synthetic S-type PPR protein”:

T1: GFP-9S library array, motif 4 ND D124I (synthetic construct, D124I)
T1 chain: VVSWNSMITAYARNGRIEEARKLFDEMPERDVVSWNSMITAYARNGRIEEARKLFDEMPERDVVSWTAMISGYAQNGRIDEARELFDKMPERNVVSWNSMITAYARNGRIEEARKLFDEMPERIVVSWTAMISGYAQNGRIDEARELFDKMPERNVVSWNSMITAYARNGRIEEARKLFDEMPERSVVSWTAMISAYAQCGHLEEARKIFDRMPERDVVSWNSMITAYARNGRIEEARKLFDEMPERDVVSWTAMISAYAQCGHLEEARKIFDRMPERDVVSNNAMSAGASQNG

T2: GFP-9S library array, motif 4 ND N98P;D124G (synthetic construct, N98P;D124G)
T2 chain: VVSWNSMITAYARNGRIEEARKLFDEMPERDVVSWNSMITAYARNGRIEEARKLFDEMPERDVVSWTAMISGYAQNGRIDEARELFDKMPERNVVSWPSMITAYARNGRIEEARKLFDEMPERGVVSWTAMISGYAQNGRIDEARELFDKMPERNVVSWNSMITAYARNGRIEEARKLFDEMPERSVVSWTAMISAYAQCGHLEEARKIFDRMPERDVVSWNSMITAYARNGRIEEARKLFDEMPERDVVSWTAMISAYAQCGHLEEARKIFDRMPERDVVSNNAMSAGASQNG

T3: GFP-9S library array, motif 4 ND N98E;D124S (synthetic construct, N98E;D124S)
T3 chain: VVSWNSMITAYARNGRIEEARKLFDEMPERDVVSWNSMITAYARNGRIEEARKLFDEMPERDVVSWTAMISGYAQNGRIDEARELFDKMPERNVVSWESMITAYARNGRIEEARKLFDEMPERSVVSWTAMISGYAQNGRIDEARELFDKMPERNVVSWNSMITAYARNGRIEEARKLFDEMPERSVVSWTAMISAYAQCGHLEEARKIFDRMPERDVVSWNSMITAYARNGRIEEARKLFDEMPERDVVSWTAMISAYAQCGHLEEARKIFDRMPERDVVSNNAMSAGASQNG

T4: GFP-9S library array, motif 4 ND N98W;D124T (synthetic construct, N98W;D124T)
T4 chain: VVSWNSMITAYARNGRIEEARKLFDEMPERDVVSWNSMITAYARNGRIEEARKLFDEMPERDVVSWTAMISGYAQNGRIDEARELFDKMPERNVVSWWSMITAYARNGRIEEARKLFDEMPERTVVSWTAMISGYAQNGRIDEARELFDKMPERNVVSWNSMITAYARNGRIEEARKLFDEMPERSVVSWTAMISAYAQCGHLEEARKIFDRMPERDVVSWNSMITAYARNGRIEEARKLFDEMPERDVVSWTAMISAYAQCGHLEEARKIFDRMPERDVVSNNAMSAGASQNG

T5: GFP-9S library array, motif 4 ND N98W;D124R (synthetic construct, N98W;D124R)
T5 chain: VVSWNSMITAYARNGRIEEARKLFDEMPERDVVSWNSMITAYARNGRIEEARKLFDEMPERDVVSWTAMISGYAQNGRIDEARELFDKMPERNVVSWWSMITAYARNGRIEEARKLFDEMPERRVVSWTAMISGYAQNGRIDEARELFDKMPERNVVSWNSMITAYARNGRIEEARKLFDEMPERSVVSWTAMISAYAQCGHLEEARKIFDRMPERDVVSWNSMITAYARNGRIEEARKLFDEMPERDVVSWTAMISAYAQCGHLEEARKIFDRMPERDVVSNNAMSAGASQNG


Key:
Experiment in all cases: high-throughput RNA pulldown from lysate on Ni-NTA beads; HRP: 50 mM Tris pH 8, 150 mM NaCl, 1 mM beta-mercaptoethanol, 50 ug/ml BSA, 3 ug/ml yeast RNA, 0.5% heparin; ITC and FP: Tris pH 8, 200 mM KCl, 5% glycerol; MST: 50 mM Tris pH 8, 200 mM NaCl, 1 mM DTT, BSA, heparin, 0.05% Tween 20
Conditions in all cases: tags: N-terminal His-eGFP
[1] = biological target: T1, GFP-9S library array, motif 4 ND D124I
[2] = biological target: T2, GFP-9S library array, motif 4 ND …
[3] = biological target: T3, GFP-9S library array, motif 4 ND …
[4] = biological target: T4, GFP-9S library array, motif 4 ND …
[5] = biological target: T5, GFP-9S library array, motif 4 ND …

Binder	Kd ([1]; label: 5' Cy5) [nM]	Kd ([2]; label: 5' Cy5) [nM]	Kd ([3]; label: 5' Cy5) [nM]	Kd ([4]; label: 5' Cy5) [nM]	Kd ([5]; label: 5' Cy5) [nM]	Kd ([1]; label: 5' IRDye 800CW) [nM]	Kd ([2]; label: 5' IRDye 800CW) [nM]	Kd ([3]; label: 5' IRDye 800CW) [nM]	Kd ([4]; label: 5' IRDye 800CW) [nM]	Kd ([5]; label: 5' IRDye 800CW) [nM]
AUUACACGUGA (ssRNA) [Cy5-rpoA]	53.8	345	422	38.5	113	–	–	–	–	–
AUUAUACGUGA (ssRNA) [IR-rpoA-U]	–	–	–	–	–	26.7	778	512	59.1	317
AUUAAACGUGA (ssRNA) [IR-rpoA-A]	–	–	–	–	–	184	735	938	76.1	206
AUUAGACGUGA (ssRNA) [Cy5-rpoA-G]	86.2	262	630	50.4	90.3	–	–	–	–	–
